Experimental data published in patent US20170096490A1 (published 2017).

B1: RANKL18hum3 (VHH)
VHH: EVQLVESGGGLVQPGGSLRLSCAASGRTFSRSAMGWFRQAPGKGREFVGFITGSGGTTYYADSVKGRFTISRDNAQNPVYLQMNSLRPEDTAVYYCGVYRRTYISSTYSESSEYDYWGQGTLVTVSS

How the values were obtained:
[1] = biological target: human RANK-L (Receptor Activator of Nuclear factor Kappa B Ligand), soluble (human) (UniProt O14788); assay: cell-based or functional assay
[2] = biological target: T1, human RANK-L (Receptor Activator of Nuclear factor Kappa B Ligand), soluble (human, UniProt O14788 140-317, limits assumed); assay: SPR BIACORE 3000, RANK-L on CM5 chip, 100 nM Nanobody; indicative, one concentration
T1 construct: Used plain, biotinylated or ALEXA647-labeled; also called hRANK-L; sRANK-L
T1 sequence (looked up): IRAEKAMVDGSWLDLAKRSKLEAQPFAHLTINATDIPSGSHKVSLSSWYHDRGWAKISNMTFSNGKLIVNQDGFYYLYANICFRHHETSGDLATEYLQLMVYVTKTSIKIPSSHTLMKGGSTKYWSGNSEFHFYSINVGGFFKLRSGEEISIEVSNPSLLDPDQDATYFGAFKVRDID

[3] = biological target: T1, human RANK-L (Receptor Activator of …); assay: AlphaScreen, biotinylated RANK-L vs RANK-huFc beads
[4] = biological target: T1, human RANK-L (Receptor Activator of …); assay: SPR BIACORE 3000, RANK-L on CM5 chip, 100 nM Nanobody

Row | Molecule | IC50, NF-kappaB reporter gene assay (luciferase, HEK293T, 300 ng/ml human RANK-L) [1] | Kd [2] | kon [2] | IC50 [3] | koff [4]
1 | osteoprotegerin (from UniProt O00300 22-401) (receptor) | 6.03 nM |  |  |  | 
2 | B1 |  | 0.288 nM | 441000 M⁻¹ s⁻¹ | 0.274 nM | 0.000127 s⁻¹
